{"source": "patent US20190300590A1", "about": "(PROTAGONIST THERAPEUTICS, published 2019)", "key": {"[1]": {"molecular_target": "T1, IL23R_huFC (human, UniProt Q5VWK5 24-353)", "T1 sequence (looked up)": "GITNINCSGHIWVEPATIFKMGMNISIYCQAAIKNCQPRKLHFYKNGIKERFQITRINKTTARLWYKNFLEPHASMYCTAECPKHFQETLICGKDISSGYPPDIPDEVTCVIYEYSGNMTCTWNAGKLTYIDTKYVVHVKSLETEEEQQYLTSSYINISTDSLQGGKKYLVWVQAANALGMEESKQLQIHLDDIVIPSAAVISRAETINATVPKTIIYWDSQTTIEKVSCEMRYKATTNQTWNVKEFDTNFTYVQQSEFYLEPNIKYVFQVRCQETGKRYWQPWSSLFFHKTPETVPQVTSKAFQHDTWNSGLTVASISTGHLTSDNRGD", "assay": "IL23-IL23R competitive ELISA"}, "[2]": {"molecular_target": "Rat IL-23R_huFC (rat)", "assay": "rat ELISA vs IL-23"}, "[3]": {"molecular_target": "T2, IL-23R on human cells (IL-23R-expressing DB cells; human NK cells) (human, UniProt Q5VWK5 24-629)", "T2 sequence (looked up)": "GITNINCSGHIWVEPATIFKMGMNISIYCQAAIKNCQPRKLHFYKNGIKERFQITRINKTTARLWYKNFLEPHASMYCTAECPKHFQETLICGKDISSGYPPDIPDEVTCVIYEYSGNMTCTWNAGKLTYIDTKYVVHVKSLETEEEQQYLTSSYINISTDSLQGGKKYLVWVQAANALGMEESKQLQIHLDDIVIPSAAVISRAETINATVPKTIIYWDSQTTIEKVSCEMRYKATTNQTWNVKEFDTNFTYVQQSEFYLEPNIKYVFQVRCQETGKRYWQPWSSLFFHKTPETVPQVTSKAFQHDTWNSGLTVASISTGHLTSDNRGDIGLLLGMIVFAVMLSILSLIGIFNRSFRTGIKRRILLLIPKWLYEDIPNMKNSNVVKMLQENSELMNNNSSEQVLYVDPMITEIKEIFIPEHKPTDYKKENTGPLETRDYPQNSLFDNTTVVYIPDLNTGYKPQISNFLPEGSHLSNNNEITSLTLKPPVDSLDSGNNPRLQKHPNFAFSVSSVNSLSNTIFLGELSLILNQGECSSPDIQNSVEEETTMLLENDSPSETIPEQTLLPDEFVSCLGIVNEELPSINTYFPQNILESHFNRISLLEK", "assay": "cell-based or functional assay"}, "[4]": {"molecular_target": "T3, IL23R_huFC (human, UniProt Q5VWK5 24-353)", "T3 sequence (looked up)": "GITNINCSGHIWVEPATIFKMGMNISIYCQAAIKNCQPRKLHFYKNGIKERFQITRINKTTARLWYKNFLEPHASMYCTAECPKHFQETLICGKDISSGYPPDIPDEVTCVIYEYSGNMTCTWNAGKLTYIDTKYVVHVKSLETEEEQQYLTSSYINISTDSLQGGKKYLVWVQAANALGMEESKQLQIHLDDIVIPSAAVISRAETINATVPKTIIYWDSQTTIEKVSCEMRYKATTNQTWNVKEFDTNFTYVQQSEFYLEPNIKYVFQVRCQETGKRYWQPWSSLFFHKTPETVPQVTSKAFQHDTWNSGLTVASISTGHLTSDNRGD", "assay": "human ELISA vs IL-23"}}, "note": "*1 amine or outer side, *2 acyl side, *3 side chain or, on linkers, in order; H or OH if unused. Bridges are numbered along the chain shown (N, C = ends). Primed or numbered codes have the meaning given here. [ ]: non-standard residue; d: D form. Phe(4-OMe)(3) = O-methyl-L-tyrosine (4-methoxy-L-phenylalanine), COc1ccc(C[C@H](N[*:1])C(=O)[*:2])cc1; Phe(4-OMe) = 4-methoxy-L-phenylalanine (O-methyl-L-tyrosine), COc1ccc(C[C@H](N[*:1])C(=O)[*:2])cc1; 6‑amino‑1,4‑diazepane‑2,5‑dione = C-terminal 6-amino-1,4-diazepane-2,5-dione group; Phe(3,4-(OMe)2) = COc1ccc(C[C@H](N)C(=O)O)cc1OC; Phe(3,4-Cl2) = N[C@@H](Cc1ccc(Cl)c(Cl)c1)C(=O)O; Phe(3,4-F2) = N[C@@H](Cc1ccc(F)c(F)c1)C(=O)O; 1Nal = N[C@@H](Cc1cccc2ccccc12)C(=O)O; 2Nal = N[C@@H](Cc1ccc2ccccc2c1)C(=O)O; AEF = NCCOc1ccc(C[C@H](N)C(=O)O)cc1; αMeL = CC(C)C[C@](C)(N)C(=O)O; Chg = N[C@H](C(=O)O)C1CCCCC1; αMeK = C[C@](N)(CCCCN)C(=O)O; Dab = NCC[C@H](N)C(=O)O; Abu = CC[C@H](N)C(=O)O; Dap = NC[C@H](N)C(=O)O; Aib = CC(C)(N)C(=O)O; PEG1 = NCCOCCC(=O)O; Sar = CNCC(=O)O"}
{"binder": "Ac-CADWVCY[1Nal]VTFG-NH2 (disulfide 1-6; SMILES CC(=O)N[C@H]1CSSC[C@@H](C(=O)N[C@@H](Cc2ccc(O)cc2)C(=O)N[C@@H](Cc2cccc3ccccc23)C(=O)N[C@H](C(=O)N[C@H](C(=O)N[C@@H](Cc2ccccc2)C(=O)NCC(N)=O)[C@@H](C)O)C(C)C)NC(=O)[C@H](C(C)C)NC(=O)[C@H](Cc2c[nH]c3ccccc23)NC(=O)[C@H](CC(=O)O)NC(=O)[C@H](C)NC1=O)", "note": "[Ac-CADWVCY-[1-Nal]-VTFG-NH2]", "values": [{"measurement": "IC50", "setting": "[1]", "result": "0.5 to 1", "unit": "µM"}]}
{"binder": "Ac-TQFDCRTWECYWHTFG-NH2 (disulfide 5-10 (inferred))", "note": "[Ac-TQFDCRTWECYWHTFG-NH2]", "values": [{"measurement": "IC50", "setting": "[1]", "result": "0.5 to 1", "unit": "µM"}]}
{"binder": "Ac-[Abu]QTWQC[AEF][2Nal][Aib]E[Dab](Ac)G-NH2 (thioether 1-6)", "note": "[Ac-Cyclo-[[Abu]-QTWQC]-[Phe[4-(2-aminoethoxy)]]-[2-Nal]-[Aib]-E-[Dab(Ac)]-G-NH2]", "values": [{"measurement": "IC50", "setting": "[2]", "result": "< 0.01", "unit": "µM"}, {"measurement": "pStat3 HTRF IC50", "setting": "[3]", "result": "< 10", "unit": "nM"}]}
{"binder": "Ac-[Abu][Dap]TWQC[AEF][Phe(3,4-Cl2)][αMeK]K(Ac)NG-NH2 (thioether 1-6)", "note": "[Ac-Cyclo-[[Abu]-DapTWQC]-[Phe[4-(2-aminoethoxy)]]-[Phe(3,4-Cl2)]-[α-MeLys]--[Lys(Ac)]-NG-NH2]", "values": [{"measurement": "IC50", "setting": "[4]", "result": "0.025 to 0.1", "unit": "µM"}]}
{"binder": "Ac-[Abu]QTWQC[AEF][2Nal][αMeK]K(Ac)NG-NH2 (thioether 1-6)", "note": "[Ac-Cyclo-[[Abu]-QTWQC]-[Phe[4-(2-aminoethoxy)]]-[2-Nal]-[α-MeLys]-[Lys(Ac)]-NG-NH2]", "values": [{"measurement": "IC50", "setting": "[2]", "result": "< 0.01", "unit": "µM"}]}
{"binder": "Ac-[Abu]QTWQC[AEF]W[αMeK]K(Ac)-{6‑amino‑1,4‑diazepane‑2,5‑dione-NH2} (thioether 1-6)", "values": [{"measurement": "IC50", "setting": "[4]", "result": "0.025 to 0.1", "unit": "µM"}, {"measurement": "pStat3 HTRF IC50", "setting": "[3]", "result": "< 10", "unit": "nM"}]}
{"binder": "Ac-GGGECENWECYWHTFG-NH2 (disulfide 5-10 (inferred))", "note": "[Ac-GGGECENWECYWHTFG-NH2]", "values": [{"measurement": "IC50", "setting": "[1]", "result": "0.5 to 1", "unit": "µM"}]}
{"binder": "Ac-[Abu]QTWQC[Phe(4-OMe)][2Nal][αMeL]ENG[dK]-NH2 (thioether 1-6)", "note": "[Ac-Cyclo-[[Abu]-QTWQC]-[Phe(4-OMe)]-[2-Nal]-[α-MeLeu]-ENG-[(D)Lys]-NH2]", "values": [{"measurement": "IC50", "setting": "[4]", "result": "0.025 to 0.1", "unit": "µM"}]}
{"binder": "Ac-[dK]CRDWQCY[1Nal]HTH[Sar][PEG1][dR]-NH2 (disulfide 2-7; SMILES CC(=O)N[C@H](CCCCN)C(=O)N[C@H]1CSSC[C@@H](C(=O)N[C@@H](Cc2ccc(O)cc2)C(=O)N[C@@H](Cc2cccc3ccccc23)C(=O)N[C@@H](Cc2c[nH]cn2)C(=O)N[C@H](C(=O)N[C@@H](Cc2c[nH]cn2)C(=O)N(C)CC(=O)NCCOCCC(=O)N[C@H](CCCNC(=N)N)C(N)=O)[C@@H](C)O)NC(=O)[C@H](CCC(N)=O)NC(=O)[C@H](Cc2c[nH]c3ccccc23)NC(=O)[C@H](CC(=O)O)NC(=O)[C@H](CCCNC(=N)N)NC1=O)", "note": "[Ac-[(D)Lys]-CRDWQCY-[1-Nal]-HTH-[ Sarc]-[AEP]-(D)Arg]-NH2]", "values": [{"measurement": "IC50", "setting": "[1]", "result": "0.5 to 1", "unit": "µM"}]}
{"binder": "Ac-REGTCSTWKCYWHTFG-NH2 (disulfide 5-10 (inferred))", "note": "[Ac-REGTCSTWKCYWHTFG-NH2]", "values": [{"measurement": "IC50", "setting": "[1]", "result": "0.5 to 1", "unit": "µM"}]}
{"binder": "Ac-[Abu]QTWQC[Phe(4-OMe)(3)][2Nal][Chg]K(Ac)NG-NH2 (thioether 1-6)", "note": "[Ac-Cyclo-[[Abu]-QTWQC]-[Phe(4-OMe)]-[Nal]-[Chg]-[Lys(Ac)]-NG-NH2]", "values": [{"measurement": "IC50", "setting": "[4]", "result": "0.025 to 0.1", "unit": "µM"}]}
{"binder": "Ac-[Abu]QTWQC[AEF][1Nal][Aib]K(Ac)NG-NH2 (thioether 1-6)", "note": "[Ac-Cyclo-[[Abu]-QTWQC]-[Phe[4-(2-aminoethoxy)]]-1-Nal[Aib]-[Lys(Ac)]-NG-NH2]", "values": [{"measurement": "IC50", "setting": "[4]", "result": "0.025 to 0.1", "unit": "µM"}]}
{"binder": "Ac-[Abu]QTWQC[Phe(3,4-F2)][2Nal][Aib]ENG-NH2 (thioether 1-6)", "note": "[Ac-Cyclo-[[Abu]-QTWQC]-[Phe(3,4-F2)]-[2-Nal]-[Aib]-ENG-NH2]", "values": [{"measurement": "IC50", "setting": "[4]", "result": "0.025 to 0.1", "unit": "µM"}]}
{"binder": "FXQTWQCFXKENN (as bracketed in name; thioether cyclo)", "note": "[Ac-F-Cyclo-[[Abu]-QTWQC]]-[Phe[4-(2-aminoethoxy)]]-[2-Nal]-[α-MeLys]-ENN-NH2]", "values": [{"measurement": "IC50", "setting": "[2]", "result": "< 0.01", "unit": "µM"}]}
{"binder": "TXQTWQCFXKENN (as bracketed in name; thioether cyclo)", "note": "[Ac-T-Cyclo-[[Abu]-QTWQC]-[Phe[4-(2-aminoethoxy)]]-[2-Nal]-[α-MeLys]-ENN-NH2]", "values": [{"measurement": "IC50", "setting": "[2]", "result": "< 0.01", "unit": "µM"}]}
{"binder": "Ac-[Abu]QTWQC[AEF]W[Chg]K(Ac)NG-NH2 (thioether 1-6)", "note": "[Ac-Cyclo-[[Abu]-QTWQC]-[Phe[4-(2-aminoethoxy)]]-W-Chg-[Lys(Ac)]-NG-NH2]", "values": [{"measurement": "IC50", "setting": "[4]", "result": "0.025 to 0.1", "unit": "µM"}]}
{"binder": "Ac-[Abu]QTWQC[AEF][Phe(3,4-(OMe)2)][Aib]ENG-NH2 (thioether 1-6)", "note": "[Ac-Cyclo-[[Abu]-QTWQC]-[Phe[4-(2-aminoethoxy)]]-[Phe(3,4-OMe2)]-[Aib]-ENG-NH2]", "values": [{"measurement": "IC50", "setting": "[4]", "result": "0.025 to 0.1", "unit": "µM"}]}
{"binder": "Ac-[Abu]QTWQC[AEF][Phe(3,4-Cl2)][Aib]ENN-NH2 (thioether 1-6)", "note": "[Ac-Cyclo-[[Abu]-QTWQC]-[Phe[4-(2-aminoethoxy)]]-[Phe(3,4-Cl2)]-[Aib]-ENN-NH2]", "values": [{"measurement": "IC50", "setting": "[4]", "result": "0.025 to 0.1", "unit": "µM"}, {"measurement": "pStat3 HTRF IC50", "setting": "[3]", "result": "< 10", "unit": "nM"}]}
